# Experimental data from PMC11417369, “DNA sequence and chromatin differentiate sequence-specific transcription factor binding in the human malaria parasite Plasmodium falciparum”.
# T1: HDP1 homeodomain-like (Plasmodium falciparum, UniProt Q8IKH4 2990-3078)
# T1 sequence: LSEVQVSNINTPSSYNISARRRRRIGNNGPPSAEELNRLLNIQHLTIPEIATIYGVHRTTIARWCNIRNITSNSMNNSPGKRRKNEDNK
# T2: SIP2 D1 (Plasmodium falciparum, UniProt C6KSN9 177-235)
# T2 sequence: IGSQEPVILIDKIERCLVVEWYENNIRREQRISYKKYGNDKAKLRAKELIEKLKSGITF
# B1: GTGCAC_negctrl_site104 (dsDNA)
# DNA 1: TTTTTTTTTTCTTTTTTTTATTATATTAACGGAATT
# DNA 2: AATTCCGTTAATATAATAAAAAAAAGAAAAAAAAAA
# B2: GTGCAC_negctrl_site443 (dsDNA)
# DNA 1: ATATAATTTGTTATACTAACTTTTTAATTATTGATA
# DNA 2: TATCAATAATTAAAAAGTTAGTATAACAAATTATAT
# B3: GTGCAC_site9629 (dsDNA)
# DNA 1: ATATCAAATAATTTAGTGCACTTTTTTTTTTCTTTT
# DNA 2: AAAAGAAAAAAAAAAGTGCACTAAATTATTTGATAT
# B4: GTGCAC_negctrl_site520 (dsDNA)
# DNA 1: AAAAAAAAATAAATAAATATATATAATATTTATGTT
# DNA 2: AACATAAATATTATATATATTTATTTATTTTTTTTT
# B5: GTGCAC_site10491 (dsDNA)
# DNA 1: TAGTGATATAATTATGTGCACTTAATACAGGTCGAT
# DNA 2: ATCGACCTGTATTAAGTGCACATAATTATATCACTA
# B6: GTGCAC_site10490 (dsDNA)
# DNA 1: TTTATATTTATTGTTGTGCACAGAACCATATTCGTT
# DNA 2: AACGAATATGGTTCTGTGCACAACAATAAATATAAA
# B7: GTGCAC_site9736 (dsDNA)
# DNA 1: ATATTTTATGTGTTGGTGCACATCTTTATTTAAACT
# DNA 2: AGTTTAAATAAAGATGTGCACCAACACATAAAATAT
# B8: GTGCAC_site10017 (dsDNA)
# DNA 1: ATATATACTATAATAGTGCATTAAAAAAGTAAAAAT
# DNA 2: ATTTTTACTTTTTTAATGCACTATTATAGTATATAT
# B9: GTGCAC_site10780 (dsDNA)
# DNA 1: TACAGTTCAATGAAGGTGCAATTAATATATAAAATA
# DNA 2: TATTTTATATATTAATTGCACCTTCATTGAACTGTA
# B10: GTGCAC_site9574 (dsDNA)
# DNA 1: ATCATATTTATGTTGGTGCATTATACATAAAGTTTA
# DNA 2: TAAACTTTATGTATAATGCACCAACATAAATATGAT
# B11: GTGCAC_site10095 (dsDNA)
# DNA 1: CTATATATAACCCATGTGCACTTTTTATGTACAATA
# DNA 2: TATTGTACATAAAAAGTGCACATGGGTTATATATAG
# B12: GTGCAC_negctrl_site631 (dsDNA)
# DNA 1: AGAAGGTAAATAATTTACCCATATATATAAATATAT
# DNA 2: ATATATTTATATATATGGGTAAATTATTTACCTTCT
# B13: GTGCAC_negctrl_site329 (dsDNA)
# DNA 1: TTTTTTTCTTTTTCAAAAAAAAAAAAAAAAAAAATA
# DNA 2: TATTTTTTTTTTTTTTTTTTTTGAAAAAGAAAAAAA
# B14: GTGCAC_negctrl_site163 (dsDNA)
# DNA 1: ATTTTTTTATAAAATTTTTATATATTATATAAATAT
# DNA 2: ATATTTATATAATATATAAAAATTTTATAAAAAAAT
# B15: GTGCAC_negctrl_site23 (dsDNA)
# DNA 1: TCCTATATATAAATATTAATATATATGTATTGGTAT
# DNA 2: ATACCAATACATATATATTAATATTTATATATAGGA
# B16: GTGCAC_negctrl_site554 (dsDNA)
# DNA 1: AAAAAAAAAAAATATTGTAGAATATGATGACTTTGT
# DNA 2: ACAAAGTCATCATATTCTACAATATTTTTTTTTTTT
# B17: GTGCAC_site9796 (dsDNA)
# DNA 1: ATATATATATATATAGTGCAAATAAAAAATAGACAA
# DNA 2: TTGTCTATTTTTTATTTGCACTATATATATATATAT
# B18: GTGCAC_negctrl_site61 (dsDNA)
# DNA 1: TGTTTTTTGTTCTTTACAAAAAAAAAAAAAAAAAAA
# DNA 2: TTTTTTTTTTTTTTTTTTTGTAAAGAACAAAAAACA
# B19: GTGCAC_site9436 (dsDNA)
# DNA 1: AACGAGCAAGACGGGGTGCACACAAACTAATATGCC
# DNA 2: GGCATATTAGTTTGTGTGCACCCCGTCTTGCTCGTT
# Target: T1, HDP1 homeodomain-like
# Test: gcPBM; about 25 ug protein; PBS, 1% milk, 0.2 mg/ml BSA, salmon testes DNA, 0.03% Triton X-100
# Settings: tags: N-terminal GST (pGEX-4T-1), kept; chain copies: 2; label: surface-attached array probe
row,Binder,binding signal
1,B1,"6.2 ln median PBM intensity, better of two orientations"
2,B2,"6.13 ln median PBM intensity, better of two orientations"
3,B3,"10.8 ln median PBM intensity, better of two orientations"
4,B4,"6.16 ln median PBM intensity, better of two orientations"
5,B5,"11.1 ln median PBM intensity, better of two orientations"
6,B6,"11.1 ln median PBM intensity, better of two orientations"
7,B7,"9.88 ln median PBM intensity, better of two orientations"
8,B8,"9.53 ln median PBM intensity, better of two orientations"
9,B9,"9.1 ln median PBM intensity, better of two orientations"
10,B10,"10.4 ln median PBM intensity, better of two orientations"
11,B11,"10.1 ln median PBM intensity, better of two orientations"
12,B12,"6.21 ln median PBM intensity, better of two orientations"
13,B13,"5.41 ln median PBM intensity, better of two orientations"
14,B14,"6.2 ln median PBM intensity, better of two orientations"
15,B15,"6.35 ln median PBM intensity, better of two orientations"
16,B16,"6.29 ln median PBM intensity, better of two orientations"
17,B17,"10 ln median PBM intensity, better of two orientations"
18,B18,"6.15 ln median PBM intensity, better of two orientations"
19,B19,"9.89 ln median PBM intensity, better of two orientations"

# Target: T2, SIP2 D1
# Test: as above
# Settings: tags: N-terminal GST (pGEX-4T-1), kept; label: surface-attached array probe
row,Binder,binding signal
1,B1,"6.89 ln median PBM intensity, better of two orientations"
2,B2,"6.82 ln median PBM intensity, better of two orientations"
3,B4,"6.84 ln median PBM intensity, better of two orientations"
4,B6,"10.4 ln median PBM intensity, better of two orientations"
5,B7,"10.9 ln median PBM intensity, better of two orientations"
6,B11,"10.2 ln median PBM intensity, better of two orientations"
7,B12,"6.91 ln median PBM intensity, better of two orientations"
8,B13,"6.85 ln median PBM intensity, better of two orientations"
9,B14,"6.9 ln median PBM intensity, better of two orientations"
10,B15,"6.91 ln median PBM intensity, better of two orientations"
11,B16,"6.85 ln median PBM intensity, better of two orientations"
12,B18,"6.89 ln median PBM intensity, better of two orientations"
13,B19,"11.8 ln median PBM intensity, better of two orientations"

# Target: AP2-I D3 (Plasmodium falciparum, UniProt Q8IJW6 910-1027)
# Test: as above
# Settings: tags: N-terminal GST (pGEX-4T-1), kept; label: surface-attached array probe
row,Binder,binding signal
1,B3,"12 ln median PBM intensity, better of two orientations"
2,B5,"11.1 ln median PBM intensity, better of two orientations"
3,B8,"12 ln median PBM intensity, better of two orientations"
4,B9,"11.1 ln median PBM intensity, better of two orientations"
5,B10,"12.1 ln median PBM intensity, better of two orientations"
6,B17,"11.2 ln median PBM intensity, better of two orientations"
